# Source: the nanobody polyreactivity screen of Harvey et al. (2022)
# Test: yeast display, Sf9 membrane polyspecificity reagent, FACS + sequencing; frameworks hold sequencing errors
# Summary of the method: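 After 36–48 hours of galactose induction, yeast (Saccharomyces cerevisiae BJ5465) displaying a synthetic nanobody library were stained at 4 °C for 1 hour with 10% biotinylated, detergent-solubilized Sf9 membrane reagent. Streptavidin microbeads enriched the stained cells before FACS sorting into low and high (top ~1%) gates on anti-HA and streptavidin fluorescence. Each clone's polyreactivity label reflects its gate of origin.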
row,Sequence,polyreactivity (PSR sort gate)
1,QVQLVESGGGIVQAGGSLRLSCAASGIISRVYAMGWYRQAPGKERELVAAISGSGGTTYYADSVKGRFTISRDNAKNTVYLQMNRLKPEDTAVDYCAARYKALYDYWGQGTQVTVSS,high polyreactivity
2,QVQLVESGGGIVQAGGSLRLSCAASGLIFLDNAMGWYRQAPGKEREFVAAIDSGGSTNYADSVKGRFTISRDNAKNNVYLQMNSLKPEDTAVYYCAAVWIYAPWYYQESVEYYYWGQGTQVSVSS,low polyreactivity
3,QVQLVESGGGIVQAGGSLRLSCAASGLIFPWTYAMGWYRQAHGKEREFVAAITSSDGSTYYADSVKGRFTISRDNAKNTVYLQMNSLKPEDTAVYYCAAVGWDYDWDYYYWGQGTQVTVSS,high polyreactivity
4,QVQLVESGGGIVQAGGSLRLSCAASGLTFYGYTMGWYRQAPGKERELVAAISWSGGNTYYADSVKGRFTISRDNAKNTVYLQMNSLKPDDTAVYYCAAVYVYLGVYARYPIWGYYYWGQGTQVTVSS,low polyreactivity
5,QVQLVESGGGIVQAGGSLRLSCAASGLTIPPNAMGWYRQAPGKEREFVAAITWSGGSTYYADSVKGRFTISRDNAKNTVYLQMNRLKPEDSAVYYCNRVTAYYPTKFDYWGQGTQVTVSS,high polyreactivity
6,QVQLVESGGGIVQAGGSLRLSCAASGNIFDDNAMGWYRQAPGKDRELVAAITSRGTRTYYADSVKGRFTISRDNAKNTVYLQMNSLKPEDTAVYYCAAGSYYWGQGSQVTVSS,high polyreactivity
7,QVQLVESGGGIVQAGGSLRLSCAASGNIFHKNAMGWYRQAPGKERELVASISCSGGSTYYADSVKGRFTISRDNAKNTVYLQMNSLKPEDTAVYYCATDAFGYPVNRYALNDYWGQGTQVTVSS,low polyreactivity
8,QVQLVESGGGIVQAGGSLRLSCAASGNILFSYAMGWYRQAPGKERELVAAISRSGGSTYYADSVKGRFTISRDNAKNTVYLQMNSLKPEDTAVYYCNAGVYYSYSVTEDYWGQGTQVTVSS,high polyreactivity
9,QVQLVESGGGIVQAGGSLRLSCAASGNTFYAYTMGWYRPAPGKERELVAAISSDGSTNYAVSVKGSVTISRDHAKNTVYLQLNCLKPEDTAVYYCAKYTSSRFEYDYWGHGTQVTVSS,low polyreactivity
10,QVQLVESGGGIVQAGGSLRLSCAASGNTFYPYTMGWYRQAPGKERELVADITYIGGDTYYADSVKGRFTISRDNAKNTVYLQMHTLKPEDTAVYYCNAVEVDHDYFYYGQNEYWGQGTQVTVSS,low polyreactivity
11,QVQLVESGGGIVQAGGSLRLSCAASGPNFTDNAMGWYRQAPGKERELVAAITGPGGSTYYAHSVKGRFTISRDNAKTTVYLQMNSLKREDTAVFYCAADYYYPYYWGQGTQVTVSS,low polyreactivity
12,QVQLVESGGGIVQAGGSLRLSCAASGRIFPHNAMGWDRQAPGKERELVAAITKSGDDTYYADSVKGRFTISRDNAKNTVYLQMNSLKPEDTAVYYCAAYLSWYDYWGQGTQVTVSS,low polyreactivity
13,QVQLVESGGGIVQAGGSLRLSCAASGRIFVGYAMGWYRQAPGKEREFVAAITFRGGTTYYADSVKGSFTISRDNAKNTVYLQMNSLKPEDTAVYYCAVPHYLYSVEYGYWGQGTQVTVSS,low polyreactivity
14,QVQLVESGGGIVQAGGSLRLSCAASGRIFVYNTMGWYRQAPGKEREFVAALSWRGGRTYYADSVKGRFTISRDNAKNTVYLQKNSLKPEDTAVYYCGADLKYYGYDYWGQGTHVTVSS,high polyreactivity
15,QVQLVESGGGIVQAGGSLRLSCAASGRIFYFNAMGWYSQAPGKERELVAAISGSGGDTYYADSVKGRFTISRDNAKNTVYLQMNSLKPEDTAVYFCAKEYIFRLWGQGTQVTVSS,low polyreactivity
16,QVQLVESGGGIVQAGGSLRLSCAASGRIFYINAMGWYRQAPGKERELVAAISTSGGCTYYADSVKGRFTISRDNAKKTVYLQMNSLKPEVTAVYYCAAALRYGYYGREYYYWGQGTKVTVSS,high polyreactivity
17,QVQLVESGGGIVQAGGSLRLSCAASGRNFSRYAMGWYRQAPGKERELVAVISRSGADTYYADSVKGRFTISRDNAKNTVYLQMNSLKPEDTAVYYCNAYSARRPHPMGYDYWGEGTQVTVSS,high polyreactivity
18,QVQLVESGGGIVQAGGSLRLSCAASGRTFTYNAMGRYRQAPGKERELVAAITYRGGSTYYADSVKGRFTISRDNAKNTVYLQMNSLKPEDTAVYYCAARVSYYRYNTPHYYYWGQGTQVTVSS,high polyreactivity
19,QVQLVESGGGIVQAGGSLRLSCAASGRTFYYYAMGWYRQAPGKERELVASISWSGGSTYYADSVKGRFTISRDNAKNTVYLQMNSLKPEDTAVYYCNAQYHTYRWLYAVYLSGDYWGQGTQVTVSS,low polyreactivity
20,QVQLVESGGGIVQAGGSLRLSCAASGRTIYFNAMGWYRQAPGKERELVATISRSTGSTYYADSVKGRFTISRDNAKNTVYLQMNSLKPEYTAVYYCNATPWGYARMDYWGQGTQVTVSS,low polyreactivity
21,QVQLVESGGGIVQAGGSLRLSCAASGSIFDYYTKAWYRQAPGKEREMVAAISWSGGSTYYADSVKGRFTISRDNAKNTVYLQMYSLKPEDTAVYYCATRVRTRTGYQYYYWGQGTQVTVSS,high polyreactivity
22,QVQLVESGGGIVQAGGSLRLSCAASGSIFLYYAMGWYRQAPGNERQLVATINWSGGTTYYADSVKGRFTISRDNAKNTVYLQMNSLKPEDTAVYYCNKAKTAYRGQYDYWGQGTQVTVSS,high polyreactivity

row,Sequence,polyreactivity (PSR sort gate)
1,QVQLVESGGGIVQAGGSLRLSCAASGSIFNIYAMGWYRQAPGKERELVAAIRWTGGSTYYADSVKGRFTISRDNAKNTVYLQMNILIPEDTAVYYCAADPWYPRGYYWGQGTQVTVSS,high polyreactivity
2,QVQLVESGGGIVQAGGSLRLSCAASGSIFRWNAMGWYRQAPGKESELVAAIRWSSGSTYYADSVKGRFTISRDNAKNTVYLQMNSLKPEDTAVYYCAASRATIKYPKREYWGQGTQVTVSS,high polyreactivity
3,QVQLVESGGGIVQAGGSLRLSCAASGSIFSFNAMGWYRQAPGKERELVAAISRGGSTYYADSVKGRFTISRDNAKNTVYLQMNSLKPEDTAVYYCAADIYGHSYSYYLGEYWGQGTQVTVSS,high polyreactivity
4,QVQLVESGGGIVQAGGSLRLSCAASGSIFSFYAMGWYRQAPGKERELVAAIDVSGGSTYYADSVKGRFTISRDNAKNSVYLQMNSLKPEDTAVYYCAKDVRDQYDYWGQGTQVTVSS,low polyreactivity
5,QVQLVESGGGIVQAGGSLRLSCAASGSIFSTNAMGWYRQAPWKERELVAAIDITNYADSVKGRFTISRDNAKNTVYLQMNSLKPEDTAVYYCNADTYSVVREGDYWGQGTQVTVSS,low polyreactivity
6,QVQLVESGGGIVQAGGSLRLSCAASGSIFTHYAMGWDRQAPGKERELVATISSTGSTDYADSVKGRFTISRDNAKNTVFLQINSLKPEDTAVYYCAAVSFYKTRATYYFWYDYWGQGTQVTVSS,low polyreactivity
7,QVQLVESGGGIVQAGGSLRLSCAASGSIFYAYAMGWYRQAPGKERELVASISRGVNTNYADSVKGRFTISRDNAKNTVYLQMNSLKPEDTAVYYCNARLRYGHGYGYWGQGTQVTVSS,low polyreactivity
8,QVQLVESGGGIVQAGGSLRLSCAASGSTFDYYAMGWYRQAPGKEMELVAGISASGGSTYYADSVKGRFTISRDNAKNTVYLQMNSLKPEDTAVYYWASYYKPPGYDYWGQGTQVTVSS,low polyreactivity
9,QVQLVESGGGIVQAGGSLRLSCAASGSTFEHNAMGWYRQAPGKEREFVAAITGSGGSTYYADSVKGRFTISRDNAKNTVYLQMTSLKPEDTAVYYCAADIQDGWYWWDIYDYWGQGTQVTVSS,low polyreactivity
10,QVQLVESGGGIVQAGGSLRLSCAASGSTFGVYAMGWYRQAPGKERDLVSVIRRGGGTDYADSVKGRFTISRDNAKNTVYLQMNSLNPEVTAVYYCAATVVRSGYLTLEMDYWGQGTQVTVSS,low polyreactivity
11,QVQLVESGGGIVQAGGSLRLSCAASGSTFLYYAMGWSRQAPGKEREFVAAISISGGSTYYADSVKGRFTISRDNAKNTVYLQMNSLKPEDTAVYYCAAEVGIVDYDYWGQGTQVTVSS,low polyreactivity
12,QVQLVESGGGIVQAGGSLRLSCAASGSTFNYNAMGWYRQAPGKERELVAAITRSGDSTYADSVKGRFTISRDNAKNTFYLQMNSLKPEYTAVYYCAKRYTHYSFRRFDYWGQGSQVTVSS,low polyreactivity
13,QVQLVESGGGIVQAGGSLRLSCAASGSTFTLYAMGWYRQAPGQERELVAAITSDDSTYYADSVKGRFTISRDNAKNTVYLQMNSLKPEDTAVYYCAADVYYGDYEMDYWGQGTQVTVSS,low polyreactivity
14,QVQLVESGGGIVQAGGSLRLSCAASGSTFYVNTMGWYRQAPGKERDLVAAISYTGGNTYYADSVKGRFTISRDNAKNTVYLQMNSLKPEDTAVYYCAARILYRGTGYPYRMNYWGQGTQVTVSS,high polyreactivity
15,QVQLVESGGGIVQAGGSLRLSCAASGSTFYVNVMGRYRQAPGKERELVAGITIRDGATYYADSVKGRFTISRDNAKITVYLQMNSLNPEDTAVYYCARAGDGEYKRDYWGQGTQVTVSS,low polyreactivity
16,QVQLVESGGGIVQAGGSLRLSCAASGSTYNLNALGWSRQAPGKERELVAAIDSGGRTNYADSVKGRFTISRDNAKNTVYVQMNSLKPEDTAVYYCAADVYAYPGSWYDYWGQGTQVTVSS,low polyreactivity
17,QVQLVESGGGIVQAGGSLRLSCAASGYNFRSYVMGWYRQAPGKERELVAAISVSGGRTYYADSVKGRFTISRDNAKNTVYLQMNSLKPEDTAVYYCATDPYSYYWPSHMDYWGQGTQVTVSS,high polyreactivity
18,QVQLVESGGGIVQAGGSLRLSCAATGNTFRYYTMGWYRKAPGKERELVAAINYRGSRTYYADSVKGRFTISRDNAKNTVYLQINSLKPEDTAVYYCARAYNAGYRYRSDYWGQGTQVTVSS,high polyreactivity
19,QVQLVESGGGIVQAGGSLRLSCATSGRIFDNNPKGRYRQAPGKESEMVAAIDWRGGTTDYADSVKGRFTISRDNAKNTVYFQMKSLKPEDTAVYYSNARGLNYYGRTFNYWGQGTQVTVSS,low polyreactivity
20,QVQLVESGGGIVQAGGSLRLSCGASGSIFVTYTMGWYRQAPGKERELVAAITSDGRTYYADSVKGRFTISRDNAKNTVYLQMNCLKPEDTAVYYCAADSSGYYWFNYWGQGTQVTVSS,low polyreactivity
21,QVQLVESGGGIVQAGGSLRLSFAASGSTFAGYAMGLYREAPGKERELVATFTYSGGSTYYADSVKGRFSISRDNAKNTVYLQMNSLKPEDTAVYYCAKNASYLWGYEYWGQGTQVTVSS,low polyreactivity
